The results in this text go back to publication doi:10.1101/580449 (bioRxiv, 2019).

The data set concerns the molecule itself. The experiment in a line: crystal structure.

B1: CMP-sialic acid transporter homologue from Zea mays (CSTZM), wildtype-like crystallization construct (natural protein)
chain: MQWYLVAALLTILTSSQGILTTLSQSNGKYNYDYATIPFLAELFKLSVSGFFLWKECRTSPSVRMTKEWRSVRLYVVPSVIYLIHNNVQFATLTYVDPSTYQIMGNLKIVTTGILFRLVLKRKLSNIQWMAIVLLAVGTTTSQVKGCGDSPCDSLFSAPLEGYLLGILSACLSALAGVYTEYLMKKNNDSLYWQNVQLYTFGVIFNMGWLIYGDFKAGFELGPWWQRLFNGYSITTWMVVFNLGSTGLLVSWLMKYSDNIVKVYSTSMAMLLTMVLSIYLFSVKATIQLFLGIIICIISLQMYFMPVHMLIELPQTLPVTSKENLYFQ
As to B1, the binding result is “binds”.
